According to publication PMC3410904:
Blank lines part the entries; values can stand above or below the substance they belong to.

Key:
[1] = molecular target: CSL (residues 10-436 of human isoform 1, myc/his) (human) (UniProt Q06330)
[2] = molecular target: CSL^F235L (residues 10-436 of human isoform 1, myc/his) (human) (UniProt Q06330)
CSL BTD (Homo sapiens) = CSL BTD (Homo sapiens) (UniProt Q06330); conditions: cited from earlier work
[3] = molecular target: CSL (residues 10-436 of human isoform 1, myc/his) (human) (UniProt Q06330); remark: listed apart in the source
[4] = molecular target: CAN (CSL-ANKNLS) fusion protein (human) (UniProt Q06330)
[5] = molecular target: CAN (CSL-ANKNLS) fusion protein (human) (UniProt Q06330); remark: listed apart in the source
[6] = molecular target: CSL (residues 10-436 of human isoform 1, myc/his) (human) (UniProt Q06330); remark: listed apart in the source

Substance: Notch intracellular domain RAM region RAM (from UniProt P46531)
Kd (CSL BTD (Homo sapiens)): 100 nM

Substance: dominant-negative form of MAML (dnMAML) (domain or fragment)
TP1-luc luciferase reporter in OT11 cells; CAN co-transfected with RAM and 1 to 30 ng dnMAML plasmid; percent of maximal (uninhibited) activation, nearly 0% at 30 ng (% of maximal activation) [5]: 25 | TP1-luc luciferase reporter in OT11 cells; CSL co-transfected with … and 1 to 30 ng dnMAML plasmid; percent of maximal (uninhibited) activation, nearly 0% at 30 ng (% of maximal activation) [6]: 30

Substance: full-length NICD (human Notch1 intracellular domain) (domain or fragment)
TP1-luc luciferase reporter in OT11 cells; NICD co-transfected with CSL; fold activation [1]: 100 fold | TP1-luc luciferase reporter in OT11 cells; NICD co-transfected with CSL^F235L; fold activation [2]: 94 fold

The remaining lines, values ahead:

TP1-luc luciferase reporter in OT11 cells; NICD* co-transfected with CSL; fold activation [1]: 4 fold | TP1-luc luciferase reporter in OT11 cells; NICD* co-transfected with CSL^F235L; fold activation [2]: 38 fold
Substance: NICD* (full-length NICD with xWxP to A4) (domain or fragment)

TP1-luc luciferase reporter in OT11 cells; RAM and ANKNLS in trans co-transfected with CSL; fold activation [3]: 9 fold | TP1-luc luciferase reporter in OT11 cells; RAM co-transfected with CAN; fold over CAN alone [4]: 6 fold
Substance: RAM (human Notch1 residues 1758-1878) (from UniProt P46531 1758-1878) (domain or fragment)

TP1-luc luciferase reporter in OT11 cells; … co-transfected with CSL; fold over empty vector [3]: 24 fold
Substance: … (human Notch1 residues 1758-2174) (from UniProt P46531 1758-2174) (domain or fragment)
